# Laboratory results published in the Human Domainome abundance scans (Beltran et al. 2025).
# ± gives the uncertainty stated by the source.
# Assay: abundance fitness (aPCA) (normalised: wild type 0, dead -1); higher = more abundant; growth selection in yeast, the domain comes from the species named
# Details: Homo sapiens
row,Substance,abundance fitness
1,"DnaJ homolog subfamily B member 1 D65P, P25685",-0.164 ± 0.11
2,"DnaJ homolog subfamily B member 1 R30F, P25685",-0.024 ± 0.089
3,"DnaJ homolog subfamily B member 1 R59Q, P25685",-0.194 ± 0.13
4,"DnaJ homolog subfamily B member 1 D65M, P25685",-0.162 ± 0.13
5,"DnaJ homolog subfamily B member 1 D53A, P25685",-0.036 ± 0.088
6,"DnaJ homolog subfamily B member 1 K35L, P25685",-0.55 ± 0.071
7,"DnaJ homolog subfamily B member 1 L11S, P25685",-0.381 ± 0.081
8,"DnaJ homolog subfamily B member 1 K21T, P25685",-0.053 ± 0.064
9,"DnaJ homolog subfamily B member 1 G14M, P25685",-0.385 ± 0.096
10,"DnaJ homolog subfamily B member 1 E50N, P25685",-0.328 ± 0.1
11,"DnaJ homolog subfamily B member 1 G10C, P25685",-0.587 ± 0.26
12,"DnaJ homolog subfamily B member 1 A15N, P25685",-0.668 ± 0.14
13,"DnaJ homolog subfamily B member 1 D57L, P25685",-0.53 ± 0.061
14,"DnaJ homolog subfamily B member 1 Y24R, P25685",-0.404 ± 0.055
15,"DnaJ homolog subfamily B member 1 P33M, P25685",0.039 ± 0.079
16,"DnaJ homolog subfamily B member 1 Y6R, P25685",-0.986 ± 0.1
17,"DnaJ homolog subfamily B member 1 R26D, P25685",0.327 ± 0.25
18,"DnaJ homolog subfamily B member 1 L29G, P25685",0.01 ± 0.083
19,"DnaJ homolog subfamily B member 1 N36G, P25685",-0.029 ± 0.08
20,"DnaJ homolog subfamily B member 1 N36F, P25685",-0.415 ± 0.12
21,"DnaJ homolog subfamily B member 1 G14I, P25685",-0.235 ± 0.12
22,"DnaJ homolog subfamily B member 1 R25W, P25685",-0.116 ± 0.092
23,"DnaJ homolog subfamily B member 1 Y52C, P25685",-0.404 ± 0.21
24,"DnaJ homolog subfamily B member 1 Y24T, P25685",-0.427 ± 0.08
25,"DnaJ homolog subfamily B member 1 Y24M, P25685",-0.223 ± 0.074
26,"DnaJ homolog subfamily B member 1 A49F, P25685",-0.358 ± 0.15

row,Substance,abundance fitness
1,"DnaJ homolog subfamily B member 1 E19G, P25685",-0.539 ± 0.078
2,"DnaJ homolog subfamily B member 1 D34I, P25685",-0.233 ± 0.1
3,"DnaJ homolog subfamily B member 1 E42T, P25685",-0.052 ± 0.093
4,"DnaJ homolog subfamily B member 1 R26Y, P25685",-0.344 ± 0.19
5,"DnaJ homolog subfamily B member 1 R30A, P25685",0.033 ± 0.072
6,"DnaJ homolog subfamily B member 1 Y31G, P25685",-0.302 ± 0.1
7,"DnaJ homolog subfamily B member 1 K21L, P25685",-0.029 ± 0.051
8,"DnaJ homolog subfamily B member 1 R30L, P25685",0.081 ± 0.067
9,"DnaJ homolog subfamily B member 1 E47A, P25685",0.021 ± 0.088
10,"DnaJ homolog subfamily B member 1 L29S, P25685",-0.138 ± 0.058
11,"DnaJ homolog subfamily B member 1 D4S, P25685",-0.193 ± 0.19
12,"DnaJ homolog subfamily B member 1 E47D, P25685",-0.073 ± 0.13
13,"DnaJ homolog subfamily B member 1 D65W, P25685",-0.358 ± 0.19
14,"DnaJ homolog subfamily B member 1 K46T, P25685",-0.451 ± 0.31
15,"DnaJ homolog subfamily B member 1 E62I, P25685",-0.378 ± 0.14
16,"DnaJ homolog subfamily B member 1 H32A, P25685",-0.154 ± 0.16
17,"DnaJ homolog subfamily B member 1 K37F, P25685",-0.645 ± 0.17
18,"DnaJ homolog subfamily B member 1 F45P, P25685",-0.508 ± 0.072
19,"DnaJ homolog subfamily B member 1 Y5V, P25685",-1.47 ± 0.2
20,"DnaJ homolog subfamily B member 1 I20R, P25685",-0.832 ± 0.06
21,"DnaJ homolog subfamily B member 1 F45H, P25685",-0.096 ± 0.17
22,"DnaJ homolog subfamily B member 1 A15E, P25685",-0.481 ± 0.068
23,"DnaJ homolog subfamily B member 1 E18I, P25685",-0.173 ± 0.14
24,"DnaJ homolog subfamily B member 1 P39I, P25685",-0.038 ± 0.15
25,"DnaJ homolog subfamily B member 1 R61I, P25685",-0.584 ± 0.13
26,"DnaJ homolog subfamily B member 1 D17Y, P25685",-0.09 ± 0.078

row,Substance,abundance fitness
1,"DnaJ homolog subfamily B member 1 F45K, P25685",-0.444 ± 0.16
2,"DnaJ homolog subfamily B member 1 K60H, P25685",-0.171 ± 0.082
3,"DnaJ homolog subfamily B member 1 D17L, P25685",0.038 ± 0.072
4,"DnaJ homolog subfamily B member 1 K21Q, P25685",0.122 ± 0.051
5,"DnaJ homolog subfamily B member 1 L11G, P25685",-0.773 ± 0.071
6,"DnaJ homolog subfamily B member 1 K35A, P25685",-0.359 ± 0.082
7,"DnaJ homolog subfamily B member 1 E50W, P25685",-0.34 ± 0.11
8,"DnaJ homolog subfamily B member 1 L11T, P25685",-0.209 ± 0.11
9,"DnaJ homolog subfamily B member 1 E19N, P25685",-0.273 ± 0.11
10,"DnaJ homolog subfamily B member 1 A23Y, P25685",-0.665 ± 0.097
11,"DnaJ homolog subfamily B member 1 T8W, P25685",-0.281 ± 0.1
12,"DnaJ homolog subfamily B member 1 R61K, P25685",-0.247 ± 0.16
13,"DnaJ homolog subfamily B member 1 N36C, P25685",0.124 ± 0.17
14,"DnaJ homolog subfamily B member 1 D34H, P25685",-0.008 ± 0.11
15,"DnaJ homolog subfamily B member 1 E42K, P25685",0.301 ± 0.14
16,"DnaJ homolog subfamily B member 1 R59W, P25685",-0.186 ± 0.14
17,"DnaJ homolog subfamily B member 1 R25G, P25685",-0.007 ± 0.12
18,"DnaJ homolog subfamily B member 1 Y52H, P25685",-0.03 ± 0.3
19,"DnaJ homolog subfamily B member 1 D65Y, P25685",-0.261 ± 0.13
20,"DnaJ homolog subfamily B member 1 S16M, P25685",-0.258 ± 0.073
21,"DnaJ homolog subfamily B member 1 R13Q, P25685",0.048 ± 0.2
22,"DnaJ homolog subfamily B member 1 R59G, P25685",-0.065 ± 0.084
23,"DnaJ homolog subfamily B member 1 L11I, P25685",0.015 ± 0.1
24,"DnaJ homolog subfamily B member 1 E38V, P25685",-0.006 ± 0.096
25,"DnaJ homolog subfamily B member 1 Y24W, P25685",-0.159 ± 0.079
26,"DnaJ homolog subfamily B member 1 Q27Y, P25685",-0.056 ± 0.28

row,Substance,abundance fitness
1,"DnaJ homolog subfamily B member 1 A15S, P25685",-0.109 ± 0.074
2,"DnaJ homolog subfamily B member 1 L29E, P25685",0.067 ± 0.15
3,"DnaJ homolog subfamily B member 1 H32Y, P25685",-0.192 ± 0.21
4,"DnaJ homolog subfamily B member 1 E38T, P25685",-0.041 ± 0.089
5,"DnaJ homolog subfamily B member 1 R61E, P25685",-0.362 ± 0.11
6,"DnaJ homolog subfamily B member 1 P33N, P25685",-0.009 ± 0.094
7,"DnaJ homolog subfamily B member 1 A15Q, P25685",-0.648 ± 0.12
8,"DnaJ homolog subfamily B member 1 E47Q, P25685",-0.153 ± 0.1
9,"DnaJ homolog subfamily B member 1 G10Y, P25685",-0.658 ± 0.12
10,"DnaJ homolog subfamily B member 1 K37Q, P25685",-0.2 ± 0.089
11,"DnaJ homolog subfamily B member 1 K21R, P25685",-0.126 ± 0.059
12,"DnaJ homolog subfamily B member 1 K35P, P25685",-0.365 ± 0.1
13,"DnaJ homolog subfamily B member 1 K44L, P25685",-0.144 ± 0.051
14,"DnaJ homolog subfamily B member 1 G14N, P25685",-0.232 ± 0.15
15,"DnaJ homolog subfamily B member 1 L9G, P25685",-0.855 ± 0.074
16,"DnaJ homolog subfamily B member 1 D53Q, P25685",-0.279 ± 0.097
17,"DnaJ homolog subfamily B member 1 R61M, P25685",-0.495 ± 0.14
18,"DnaJ homolog subfamily B member 1 D17C, P25685",0.031 ± 0.23
19,"DnaJ homolog subfamily B member 1 E50I, P25685",-0.011 ± 0.1
20,"DnaJ homolog subfamily B member 1 K46L, P25685",-0.639 ± 0.43
21,"DnaJ homolog subfamily B member 1 Y31F, P25685",-0.347 ± 0.17
22,"DnaJ homolog subfamily B member 1 A28V, P25685",0.043 ± 0.081
23,"DnaJ homolog subfamily B member 1 D57M, P25685",-0.366 ± 0.084
24,"DnaJ homolog subfamily B member 1 L9T, P25685",-0.69 ± 0.14
25,"DnaJ homolog subfamily B member 1 K35S, P25685",-0.438 ± 0.064
